Data on 16 sequences can be found in the nanobody polyreactivity screen of Harvey et al. (2022).

A short description of this data set: yeast display, Sf9 membrane polyspecificity reagent, FACS + sequencing; frameworks hold sequencing errors. The gist of the method: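 Nanobodies came from a synthetic yeast display library in Saccharomyces cerevisiae BJ5465, induced with galactose for 36–48 hours and stained for 1 hour at 4 °C with 10% biotinylated, detergent-solubilized Sf9 membrane reagent. Cells were enriched on streptavidin microbeads and then FACS-sorted, with low and high (top ~1%) gates set on anti-HA fluorescence for expression and streptavidin fluorescence for reagent binding. Each polyreactivity label reflects the gate a clone came from. Genes were amplified by colony PCR, sequenced by MiSeq 2 × 250 and filtered by CDR length.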
For “QVQLVESGGGLVQAGGSLRLSCAASGSTFVDNAMGWYRQAPGKERELVAAINSTDITNYADSVKGRFTISRDNAKNTVYLQMNSLKPEDTAVYYCAKDLLKWRKYQWYYYWGQGTQVTVSS”, the “polyreactivity (PSR sort gate)” value is “low polyreactivity”.
The entry for “QVQLVESGGGLVQAGGSLRLSCAASGSTFVDNAMGWYRQAPGKERELVAAISSSGGTTYYADSVKGRFTISRDNAKNTVYLQMNSLKPEDTAVYYCAARRRSGTYWRSANDYWGQGTQVTVSS” is “high polyreactivity”.
The entry for “QVQLVESGGGLVQAGGSLRLSCAASGSTFVDNAMGWYRQAPGKERELVAAISTRGGTTYYADSVKGRFTISRDNAKNTVYLQMNSLKPEDTAVYYCAADYYDSGWYGYWGQGTQVTVSS” is “high polyreactivity”; for “QVQLVESGGGLVQAGGSLRLSCAASGSTFVDNAMGWYRQAPGKERELVADITWSGGSTYYADSVKGRFTISRDNAKNTVYLQMNSLKPEDTAVYYCAKVPKSRGYVGGMDYWGQGTQVTVSS” it is “low polyreactivity”; for “QVQLVESGGGLVQAGGSLRLSCAASGSTFVDNAMGWYRQAPGKEREMVAAIRYGSGGSTRYADSVKGRFTISRDNAKNTVYLQMNSLKPEDTAVYYCAADGYITVNYLRYDYWGQGTQVTVSS” it is “low polyreactivity”.
“QVQLVESGGGLVQAGGSLRLSCAASGSTFVDNLMGWYRQSPGKERELVAAIDFSTGSTYYADSVKGRFTISRDNAKNTVYLQMNSLKPDDTAVYYCNAKYYSWDWSSFNYWGQGTQVTVSS”: the “polyreactivity (PSR sort gate)” value was “low polyreactivity”.
“QVQLVESGGGLVQAGGSLRLSCAASGSTFVDYAMGWYRQAPGKERELVAAINRSGGRTYYADSVKGRFTISRDNAKNTVYLQMNSLKPEDTAVYYCAAKNPQPDEHGYWGQGTQVTVSS”: the “polyreactivity (PSR sort gate)” value was “high polyreactivity”.
Take “QVQLVESGGGLVQAGGSLRLSCAASGSTFVFYAMGWYRQAPGKERELVAAISRSGGSTYYADSVKGRFTISRDNAKNTVYLQMNSLKPEDTAVYYCNAVRFYRYGWGQGTQVTVSS”: the “polyreactivity (PSR sort gate)” value is “high polyreactivity”.
Regarding “QVQLVESGGGLVQAGGSLRLSCAASGSTFVFYAMGWYRQAPGKERELVATISSGGSTYADSVKGRFTISRDNAKNTVYLQMYSLKPEDTAVYYCAADSLFGHYDYWGQGTQVTVSS”, the “polyreactivity (PSR sort gate)” value is “low polyreactivity”.
On to “QVQLVESGGGLVQAGGSLRLSCAASGSTFVGNAMGWYRQAPGKERELVAAISRGGGRTYYADSVKGRFTISRDNAKNTVYLQMNSLKPEDTAVYYCNADVYHRAWHLDYWGQGTQVTVSS”, for which the “polyreactivity (PSR sort gate)” value is “high polyreactivity”.
“QVQLVESGGGLVQAGGSLRLSCAASGSTFVGYAMGWYRPAPGKDRELFAAITRGGGSTYYADSVKWRFTISRDNAKNTVYLQINSLKPEDTAVYYCAAYQHPGLRTSYEYWGQGTQVTVSS”: the “polyreactivity (PSR sort gate)” value is recorded as “low polyreactivity”.
With “QVQLVESGGGLVQAGGSLRLSCAASGSTFVGYAMGWYRQAPGKERELVAAISERGGRTYYADSVKGRFTISRDNAKNTVYLQMNSLKPEDTAVYYCAAYGRYPRLYTYYYWGQGTQVTVSS”, the “polyreactivity (PSR sort gate)” value was “high polyreactivity”.
Consider “QVQLVESGGGLVQAGGSLRLSCAASGSTFVGYAMGWYRQAPGKERELVAAISSSGSTNYADSVKGRFTISRDNAKNTVYLQMNSLKPEDTAVYYCAALYSYFWLIIDYGYWGQGTQVTVSS”, for which the “polyreactivity (PSR sort gate)” value is on record as “low polyreactivity”.
For “QVQLVESGGGLVQAGGSLRLSCAASGSTFVGYAMGWYRQAPGKERELVADIDSIGGSTYYADSVNGRFTISRDNAKNTVYLQMNSLKPEDTAVYYCAARRFDTALVLYDYWGQGTQVTVSS”, the “polyreactivity (PSR sort gate)” value is “low polyreactivity”.
Turning to “QVQLVESGGGLVQAGGSLRLSCAASGSTFVGYAMGWYRQAPGKEREVVAAISGSGTSTYYADSVKGRFTISRDNAKNTVYLQMNSLKPEDTAVYYCNSDPIFVYSSYNYWGQGTQVTVSS”, the “polyreactivity (PSR sort gate)” value is “low polyreactivity”.
As to “QVQLVESGGGLVQAGGSLRLSCAASGSTFVGYAMGWYRQAPGKVRELVADITSGGGITYYADSVKGRFTISRDNAKNTVYLQMNSLKPDDTAVYYCAPGRPRPHWWSLDYYYWGQGTQVTVSS”, the “polyreactivity (PSR sort gate)” value is “low polyreactivity”.
